The source of these data is US20260258125A1 (NONA BIOSCIENCES SUZHOU, published 2026).

The target of assay [1] is T1, human CEACAM8 protein (human, UniProt P31997 35-320).
T1 construct: Bought protein; also called huCEACAM8
T1 sequence (looked up): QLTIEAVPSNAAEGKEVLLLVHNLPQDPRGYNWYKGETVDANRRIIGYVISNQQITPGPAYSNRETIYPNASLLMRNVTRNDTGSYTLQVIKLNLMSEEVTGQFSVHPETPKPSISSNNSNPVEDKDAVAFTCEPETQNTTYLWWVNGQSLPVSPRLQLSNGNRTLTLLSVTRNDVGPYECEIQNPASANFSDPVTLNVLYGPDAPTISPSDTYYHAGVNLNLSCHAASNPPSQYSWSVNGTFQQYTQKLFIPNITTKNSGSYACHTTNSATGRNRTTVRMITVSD
In words: ELISA, human CEACAM8 protein coated on the plate, anti-human Fc-HRP, OD450. The text has this: Binding of recombinant anti-CEACAM5/6 dual-binding monoclonal antibodies against human and cynomolgus CEACAM5, and human CEACAM6 (Uniprot P40199), human CEACAM 1, 3 (NP_001806.2, Sino Biological 11933-H08H) and 8 (NP_001807.2, Acro Bio CE8-H5224) were detected by ELISA. Anti-CEACAM5/6 dual-antibodies were serially diluted in staining buffer (PBS containing 2% FBS). […] ELISA was used to test the binding between antibody containing supernatant or purified antibodies and the antigen. Briefly, the antigens were coated on a 96-well high binding plate overnight at 4° C. The plate was washed with PBST three times, incubated with blocking buffer (2% Bovine Serum Albumin) for one hour at 37° C., washed with PBST three times and incubated with antibody containing supernatant or purified antibodies at desired dilutions or concentrations for one hour at 37° C. A secondary antibody, anti-human Fc-HRP (Jackson Laboratory, 109-035-097) was used for detection of the targeted antibody. TMB and stopping solution were used for detection of HRP signal. The HRP signal was read on a SPECTRAMAX plate reader.
Background: In an ELISA, binding on a coated surface is turned into a signal by an enzyme label.

Assay [2] deals with T1, human CEACAM8 protein. In words: ELISA, antigen coated on plate.
Assay [3] concerns the target T2, human CEACAM3 protein (human, UniProt P40198 35-155).
T2 construct: Bought protein; also called huCEACAM3
T2 sequence (looked up): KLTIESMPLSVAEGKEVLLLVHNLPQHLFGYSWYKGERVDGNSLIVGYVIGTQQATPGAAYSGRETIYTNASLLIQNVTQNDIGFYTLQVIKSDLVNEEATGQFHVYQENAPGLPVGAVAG
In words: ELISA, antigen coated on plate.

Numbering of substitutions follows the chain as printed.

B1: PR304294 (antibody, human IgG1, kappa, V domains shown)
VH: EVQLLESGGGLVQPGGSLRLSCAASGFTFSSYAMSWVRQAPGKGLEWVSAISGTTYNTYYAGSVKGRFTISRDNSKNTLYLQMNSLRAEDTAVYYCAKGISVAGYYYYGMDVWGQGTTVTVSS
VL: EIVMTQSPATLSVSPGERATLSCRASQSVISNLAWYQQKPGQAPRLLIYGASTRATGIPARFSGSGSGTEFTLTISSLQSEDFAVYYCHQYNNWPLTFGGGTKVEIKR
notes: Recombinant full antibody
With B1, the binding result in assay [1] is given as “no binding (tested: 10 nM)”.

B2: PR304171 (antibody, human IgG1, kappa, V domains shown)
VH: not shown
VL: B1 VL with S28N, Y36H, G50T, A51T, H89Q
notes: Recombinant full antibody
For the molecule B2, the binding result in assay [2] and in assay [3] was “no binding” in each case.
